Source: PMC7089970, “Structural insights into catalytic mechanism and product delivery of cyanobacterial acyl-acyl carrier protein reductase” (Nature Communications, 2020)
Several values for one entry are separate records, joined by “and”; a condition that tells them apart may be missing. Identical values can stand only once. Entries after “also recorded” stand apart in the source; their conditions may differ. Like-named read-outs stand apart in the source and are kept apart here.

Key:
[1] = Enzymatic activity assay of AAR toward stearoyl-CoA (octadecanal by GC-MS); format: biochemical, Synechococcus elongatus PCC 7942
Text: PCC 6803 and Synechocystis sp. […] The extraction step was repeated for three times.

[2] = ITC; for Kd: read-out: KD value, binding with stearoyl-CoA, presence of potassium ion (+K+, 200 mM KCl), N.D. = not detected; for binding of AAR mutant with stearoyl-CoA (in words): +K+
Experimental: (§1) The binding affinity of AAR with ADO or stearoyl-CoA was measured by isotheral titration calorimetry (ITC) using a MicroCal Auto-ITC200 microcalorimeter (GE Healthcare Bio-sciences, Pittsburgh, PA). […] Wild type or mutants of ADO (or AAR) were placed into the sample cell (200 µL working volume) at a final concentration of 30 µM (60 µM for AAR) and was titrated with successive 2-µL injections of AAR protein with concentration of 500 µM (or ADO protein with concentration of 1 mM). Titrating AAR (500 µM) or ADO (1 mM) into the same buffer was performed as a control to determine the background correction. […] Injection of stearyol-CoA into the reaction buffer was performed as control to determine background correction.

[3] = both incubated with AAR
Experimental: For measuring the enzymatic activity of AAR, the AAR protein at the concentration of 20 µM was mixed with 2 mM NADPH and 0.5 mM stearoyl-CoA in a 100 µL reaction buffer containing 20 mM HEPES pH 7.5, 200 mM KCl, 0.5 mM MgCl2, and 0.5 mM TCEP. […] The ferrodoxin and FNR are recombinant proteins from cyanobacterial strains Synechocystis sp. […] PCC 7942, respectively, and were added into the reaction buffer for supplying electrons for the reduction of ADO. The mixture was incubated at 30 °C for 5 h. The produced octadecanal and heptadecane were extracted by addition of an equal volume of ethyl acetate (Sigma Aldrich, HPLC grade) and centrifuged at 13,000 × g for 15 min at room temperature. The extraction step was repeated for three times. The extracted supernatant was pooled together, dried with nitrogen gas, and then resolved in 20 µL ethyl acetate for the GC-MS measurement.
The concentration of octadecanal and heptadecane was measured using an Agilent 7890 A gas chromatograph coupled with an Agilent 7000B QQQ mass spectrometer. A total of 2 µL sample was loaded with the helium as the carrier gas onto the chromatographic column HP-5ms (30 mM × 0.25 mM ID, 0.25 μm; Agilent) at the flow rate of 1.3 ml min^−1. The injector temperature maintained at 300 °C with spotless mode. The GC oven settings were as follows: initial temperature 75 °C, held for 5 min, then at 40 °C min^−1, increased to 325 °C and held for 5 min. Ionization mode of EI (70 eV, 230 °C) and full scan of 50–550 m/z were chosen for MS detection. The standard curve was plotted based on the measuring of the commercial octadecanal and heptadecane (Sigma Aldrich) at a gradient concentration (from 3.125 to 75 µg mL^−1). Data were acquired and processed using MassHunter Workstation Software and the NIST database.

[4] = biological target: T1, acyl-acyl carrier protein (acyl-ACP) reductase from Synechococcus elongatus PCC 7942, wild type, His-tag … (Synechococcus elongatus PCC 7942, UniProt Q54765 1-341); experiment: ITC; ADO (wild type or mutant) in the sample cell at 30 µM, titrated with 2-µL injections of 500 µM AAR; 25 mM Tris-HCl pH 7.5, 1 mM TCEP; details: both partners purified
T1 construct: acyl-ACP reductase (AAR), Synechococcus elongatus PCC 7942, gene Synpcc7942_1594; complete protein of 341 residues; after TEV cleavage ENLYFQ probably stays at the C-terminus (surmised); also called AAR; SeAAR; not shown: His6, C-terminal, cleaved
T1 sequence (looked up): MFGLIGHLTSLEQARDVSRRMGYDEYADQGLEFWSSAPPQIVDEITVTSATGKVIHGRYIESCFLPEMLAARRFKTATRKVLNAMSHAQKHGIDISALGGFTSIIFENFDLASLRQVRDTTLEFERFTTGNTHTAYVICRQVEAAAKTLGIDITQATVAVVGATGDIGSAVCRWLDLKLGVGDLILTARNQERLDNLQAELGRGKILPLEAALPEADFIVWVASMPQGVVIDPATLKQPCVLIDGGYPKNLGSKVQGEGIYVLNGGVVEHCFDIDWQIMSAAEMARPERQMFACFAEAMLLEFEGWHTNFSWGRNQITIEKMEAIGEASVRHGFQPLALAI

AAR = biological target: T2, AAR (Synechococcus elongatus, UniProt Q54765); experiment: ITC binding of ADO (wild type and mutants) with AAR; set-up: species or system Synechococcus elongatus PCC 7942
T2 construct: modeled the complete AAR protein containing 341 amino acid residues; 22-residue C-terminal peptide with His6 (G + […]) (C, cleaved yes); made in house; host or cells: E. coli BL21(DE3) co-transformed with chaperone plasmid pG-KJE8
T2 sequence (Q54765 1-341): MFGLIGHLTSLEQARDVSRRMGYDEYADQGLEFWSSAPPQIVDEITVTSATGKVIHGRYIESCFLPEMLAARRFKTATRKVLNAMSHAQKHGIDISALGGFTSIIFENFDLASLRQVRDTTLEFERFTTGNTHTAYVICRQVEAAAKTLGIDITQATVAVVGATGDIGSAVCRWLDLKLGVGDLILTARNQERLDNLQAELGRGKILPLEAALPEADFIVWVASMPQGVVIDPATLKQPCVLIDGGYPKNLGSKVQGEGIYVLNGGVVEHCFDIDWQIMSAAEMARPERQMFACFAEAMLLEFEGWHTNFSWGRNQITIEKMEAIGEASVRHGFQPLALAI
Experimental: as §1

ADO = biological target: T3, ADO (Synechococcus elongatus, UniProt Q54764); experiment: ITC binding of AAR (wild type and mutants) with ADO; set-up: species or system Synechococcus elongatus PCC 7942
T3 construct: His6-tag peptide (C, cleaved yes); made in house; host or cells: E. coli BL21(DE3), without chaperone plasmid
T3 sequence (Q54764 1-231): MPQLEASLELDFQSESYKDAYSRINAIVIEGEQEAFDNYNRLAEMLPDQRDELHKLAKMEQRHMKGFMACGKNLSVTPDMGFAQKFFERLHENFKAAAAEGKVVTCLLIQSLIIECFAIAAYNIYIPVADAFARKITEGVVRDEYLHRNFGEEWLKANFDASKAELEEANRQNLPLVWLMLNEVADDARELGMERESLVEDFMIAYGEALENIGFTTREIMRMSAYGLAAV
Experimental: as §1

## AAR wild type: acyl-acyl carrier protein reductase from Synechococcus elongatus PCC 7942, wild type recombinant protein
[1]
  Octadecanal yield, single data (data1-data3): 5.8 and 7.04 and 5.2
[2]
  binding between AAR and stearoyl-CoA for AAR incubated with NADPH (in words): not significantly affected by NADPH
[2]; listed as AAR
  Kd: 90 nM
[2]; listed as apo-AAR
  Kd: ~90 nM

## ADO wild type: aldehyde-deformylating oxygenase from Synechococcus elongatus PCC 7942, wild type recombinant protein
[3]; listed as wild type ADO
  heptadecane product yield of wild-type ADO compared with triple mutant E196A/E200A/D201A of ADO: more than twice
[3]; listed as wild-type ADO
  heptadecane product yield of wild-type ADO compared with triple mutant E196A/E200A/D201A of ADO: two times more product

B1: aldehyde-deformylating oxygenase from Synechococcus elongatus PCC 7942, D201A mutant (enzyme, UniProt Q54764 1-231, looked up)
chain: MPQLEASLELDFQSESYKDAYSRINAIVIEGEQEAFDNYNRLAEMLPDQRDELHKLAKMEQRHMKGFMACGKNLSVTPDMGFAQKFFERLHENFKAAAAEGKVVTCLLIQSLIIECFAIAAYNIYIPVADAFARKITEGVVRDEYLHRNFGEEWLKANFDASKAELEEANRQNLPLVWLMLNEVADDARELGMERESLVEAFMIAYGEALENIGFTTREIMRMSAYGLAAV
notes: aldehyde-deformylating oxygenase (ADO), Synechococcus elongatus PCC 7942, gene Synpcc7942_1593; Made by PCR on pET24a-ADO; also called ADO D201A; source: E. coli BL21(DE3), purified (same protocol as wild-type ADO); not shown: His6, C-terminal, cleaved
[4]
  Kd: 4900 ± 1400 nM

B2: ADO E200A (protein)
chain: MPQLEASLELDFQSESYKDAYSRINAIVIEGEQEAFDNYNRLAEMLPDQRDELHKLAKMEQRHMKGFMACGKNLSVTPDMGFAQKFFERLHENFKAAAAEGKVVTCLLIQSLIIECFAIAAYNIYIPVADAFARKITEGVVRDEYLHRNFGEEWLKANFDASKAELEEANRQNLPLVWLMLNEVADDARELGMERESLVADFMIAYGEALENIGFTTREIMRMSAYGLAAV
modifications: left off: His6, C-terminal, cleaved
AAR
  binding of ADO mutant with AAR (in words): significantly reduced binding affinity with AAR

B3: ADO E200A/D201A (protein)
chain: MPQLEASLELDFQSESYKDAYSRINAIVIEGEQEAFDNYNRLAEMLPDQRDELHKLAKMEQRHMKGFMACGKNLSVTPDMGFAQKFFERLHENFKAAAAEGKVVTCLLIQSLIIECFAIAAYNIYIPVADAFARKITEGVVRDEYLHRNFGEEWLKANFDASKAELEEANRQNLPLVWLMLNEVADDARELGMERESLVAAFMIAYGEALENIGFTTREIMRMSAYGLAAV
modifications: left off: His6, C-terminal, cleaved
AAR
  binding of ADO mutant with AAR (in words): completely lose their capability to bind AAR; also recorded: completely abolished the capability of ADO to bind with AAR

B4: ADO E196A (protein)
chain: MPQLEASLELDFQSESYKDAYSRINAIVIEGEQEAFDNYNRLAEMLPDQRDELHKLAKMEQRHMKGFMACGKNLSVTPDMGFAQKFFERLHENFKAAAAEGKVVTCLLIQSLIIECFAIAAYNIYIPVADAFARKITEGVVRDEYLHRNFGEEWLKANFDASKAELEEANRQNLPLVWLMLNEVADDARELGMERASLVEDFMIAYGEALENIGFTTREIMRMSAYGLAAV
modifications: left off: His6, C-terminal, cleaved
AAR
  binding of ADO mutant with AAR (in words): significantly reduced binding affinity with AAR

B5: aldehyde-deformylating oxygenase from Synechococcus elongatus PCC 7942, E211A mutant (enzyme, UniProt Q54764 1-231, looked up)
chain: MPQLEASLELDFQSESYKDAYSRINAIVIEGEQEAFDNYNRLAEMLPDQRDELHKLAKMEQRHMKGFMACGKNLSVTPDMGFAQKFFERLHENFKAAAAEGKVVTCLLIQSLIIECFAIAAYNIYIPVADAFARKITEGVVRDEYLHRNFGEEWLKANFDASKAELEEANRQNLPLVWLMLNEVADDARELGMERESLVEDFMIAYGEALANIGFTTREIMRMSAYGLAAV
notes: aldehyde-deformylating oxygenase (ADO), Synechococcus elongatus PCC 7942, gene Synpcc7942_1593; Made by PCR on pET24a-ADO; also called ADO E211A; source: E. coli BL21(DE3), purified (same protocol as wild-type ADO); not shown: His6, C-terminal, cleaved
[4]
  Kd: 2800 ± 850 nM

B6: aldehyde-deformylating oxygenase from Synechococcus elongatus PCC 7942, E208A mutant (enzyme, UniProt Q54764 1-231, looked up)
chain: MPQLEASLELDFQSESYKDAYSRINAIVIEGEQEAFDNYNRLAEMLPDQRDELHKLAKMEQRHMKGFMACGKNLSVTPDMGFAQKFFERLHENFKAAAAEGKVVTCLLIQSLIIECFAIAAYNIYIPVADAFARKITEGVVRDEYLHRNFGEEWLKANFDASKAELEEANRQNLPLVWLMLNEVADDARELGMERESLVEDFMIAYGAALENIGFTTREIMRMSAYGLAAV
notes: aldehyde-deformylating oxygenase (ADO), Synechococcus elongatus PCC 7942, gene Synpcc7942_1593; Made by PCR on pET24a-ADO; also called ADO E208A; source: E. coli BL21(DE3), purified (same protocol as wild-type ADO); not shown: His6, C-terminal, cleaved
[4]
  Kd: 14800 ± 3700 nM

B7: AAR R73A (protein)
chain: MFGLIGHLTSLEQARDVSRRMGYDEYADQGLEFWSSAPPQIVDEITVTSATGKVIHGRYIESCFLPEMLAARAFKTATRKVLNAMSHAQKHGIDISALGGFTSIIFENFDLASLRQVRDTTLEFERFTTGNTHTAYVICRQVEAAAKTLGIDITQATVAVVGATGDIGSAVCRWLDLKLGVGDLILTARNQERLDNLQAELGRGKILPLEAALPEADFIVWVASMPQGVVIDPATLKQPCVLIDGGYPKNLGSKVQGEGIYVLNGGVVEHCFDIDWQIMSAAEMARPERQMFACFAEAMLLEFEGWHTNFSWGRNQITIEKMEAIGEASVRHGFQPLALAI
modifications: left off: His6, C-terminal, cleaved
ADO
  binding of AAR mutant with ADO (in words): abolish the binding capability with ADO

B8: AAR R79A (protein)
chain: MFGLIGHLTSLEQARDVSRRMGYDEYADQGLEFWSSAPPQIVDEITVTSATGKVIHGRYIESCFLPEMLAARRFKTATAKVLNAMSHAQKHGIDISALGGFTSIIFENFDLASLRQVRDTTLEFERFTTGNTHTAYVICRQVEAAAKTLGIDITQATVAVVGATGDIGSAVCRWLDLKLGVGDLILTARNQERLDNLQAELGRGKILPLEAALPEADFIVWVASMPQGVVIDPATLKQPCVLIDGGYPKNLGSKVQGEGIYVLNGGVVEHCFDIDWQIMSAAEMARPERQMFACFAEAMLLEFEGWHTNFSWGRNQITIEKMEAIGEASVRHGFQPLALAI
modifications: left off: His6, C-terminal, cleaved
ADO
  binding of AAR mutant with ADO (in words): abolish the binding capability with ADO

B9: AAR K80A (protein)
chain: MFGLIGHLTSLEQARDVSRRMGYDEYADQGLEFWSSAPPQIVDEITVTSATGKVIHGRYIESCFLPEMLAARRFKTATRAVLNAMSHAQKHGIDISALGGFTSIIFENFDLASLRQVRDTTLEFERFTTGNTHTAYVICRQVEAAAKTLGIDITQATVAVVGATGDIGSAVCRWLDLKLGVGDLILTARNQERLDNLQAELGRGKILPLEAALPEADFIVWVASMPQGVVIDPATLKQPCVLIDGGYPKNLGSKVQGEGIYVLNGGVVEHCFDIDWQIMSAAEMARPERQMFACFAEAMLLEFEGWHTNFSWGRNQITIEKMEAIGEASVRHGFQPLALAI
modifications: left off: His6, C-terminal, cleaved
ADO
  binding of AAR mutant with ADO (in words): abolish the binding capability with ADO

B10: AAR Y247F: AAR single mutant Y247F (protein)
chain: MFGLIGHLTSLEQARDVSRRMGYDEYADQGLEFWSSAPPQIVDEITVTSATGKVIHGRYIESCFLPEMLAARRFKTATRKVLNAMSHAQKHGIDISALGGFTSIIFENFDLASLRQVRDTTLEFERFTTGNTHTAYVICRQVEAAAKTLGIDITQATVAVVGATGDIGSAVCRWLDLKLGVGDLILTARNQERLDNLQAELGRGKILPLEAALPEADFIVWVASMPQGVVIDPATLKQPCVLIDGGFPKNLGSKVQGEGIYVLNGGVVEHCFDIDWQIMSAAEMARPERQMFACFAEAMLLEFEGWHTNFSWGRNQITIEKMEAIGEASVRHGFQPLALAI
modifications: left off: His6, C-terminal, cleaved
ADO
  binding of AAR mutant with ADO (in words): almost the same as that of AAR wild type
[1]
  Octadecanal yield: 61.1 ± 6.76 µg/mL
[1]; source data of Table 3, +K+
  Octadecanal yield, EVERAGE: 61.0928
  Octadecanal yield, single data (data1-data4): 68.55 and 59.38 and 55.3483
[2]
  binding of AAR mutant with stearoyl-CoA (in words): decreased binding affinity
[2]; listed as Y247F mutant
  binding of AAR mutant with stearoyl-CoA (in words): reduced binding affinity with stearoyl-CoA
